Entries after “also recorded” stand apart in the source; their conditions may differ. Ends that are not written are not given here.
Experiments:
[1] = system: U87MG cells; test: Binding of AgRP mutant 7A to U87MG cells; conditions: read-out: KD against U87MG cells
Text: (§1) The αvβ3 integrin receptor is over-expressed on many solid tumor cells making it an important cancer target. The Agouti related protein (AgRP), a cystine-knot peptide, contains four disulfide bonds and four solvent-exposed loops. It was engineered to target αvβ3 integrin receptors with pM binding affinity.

[2] = system: K562-αvβ3 cells; test: Binding of AgRP mutant 7A to K562-αvβ3 cells; conditions: read-out: KD against K562-αvβ3 cells
Text: as §1

[3] = target: T1, Met receptor (Homo sapiens, UniProt P08581); test: Met receptor phosphorylation assay in PC3 cells; type: cell-based; conditions: 0.3 nM HGF, Western blot
T1 construct: PC3 cells express medium levels of the αvβ3 integrin and Met; endogenous in cells; host or cells: PC3 prostate cancer cells
Experimental: A Met receptor phosphorylation assay was performed in PC3 (prostate cancer cells). Met receptor phosphorylation was assayed by Western blot after stimulation with 0.3 nM HGF. […] (Note: PC3 cells express medium levels of the αvβ3 integrin and Met, and low levels of the α5β1 integrin).

[4] = system: HUVECs; test: HUVEC proliferation assay stimulated with HGF; conditions: 0.5 nM HGF
[5] = target: αvβ3 integrin (Homo sapiens, UniProt P05106+P06756); test: cRGD competition of EETI 2.5D-Axl binding to K562-αvβ3 cells
[6] = target: T2, Gas6 (Homo sapiens, UniProt Q14393); test: Yeast surface display equilibrium binding to soluble Gas6; parameters: purchased R&D Systems
T2 sequence (Q14393 31-678): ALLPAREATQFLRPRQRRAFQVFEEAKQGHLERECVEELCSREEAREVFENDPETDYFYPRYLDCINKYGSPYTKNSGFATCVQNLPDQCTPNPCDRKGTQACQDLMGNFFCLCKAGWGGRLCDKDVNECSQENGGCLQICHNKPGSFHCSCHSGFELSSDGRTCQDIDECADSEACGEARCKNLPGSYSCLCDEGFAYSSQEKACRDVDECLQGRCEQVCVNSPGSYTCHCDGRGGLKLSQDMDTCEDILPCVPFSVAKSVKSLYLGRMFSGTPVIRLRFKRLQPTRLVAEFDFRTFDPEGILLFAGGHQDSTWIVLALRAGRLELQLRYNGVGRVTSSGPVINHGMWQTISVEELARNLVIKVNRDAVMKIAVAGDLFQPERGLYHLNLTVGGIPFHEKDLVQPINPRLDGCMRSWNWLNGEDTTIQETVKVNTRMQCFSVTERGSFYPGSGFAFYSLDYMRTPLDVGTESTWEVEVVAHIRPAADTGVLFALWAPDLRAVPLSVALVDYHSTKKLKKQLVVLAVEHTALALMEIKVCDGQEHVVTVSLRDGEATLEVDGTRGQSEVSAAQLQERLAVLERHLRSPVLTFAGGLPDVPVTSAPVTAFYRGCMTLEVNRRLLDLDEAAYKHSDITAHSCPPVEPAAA

[7] = Melting temperature of engineered Axl Ig1 clone; conditions: versus wild-type Axl Ig1
[8] = target: T2, Gas6; test: Equilibrium binding of engineered Axl Ig1 clones to Gas6; conditions: binding to Gas6, versus wild-type Axl Ig1
[9] = system: human umbilical vein endothelial cells (HUVECs); test: HUVEC cell binding assay of knottin-NK1 fusions; conditions: read-out: binding affinity (KD) towards HUVECs
Text: HUVECs express medium levels of the αvβ3, αvβ5 integrins, the Met receptor, and a high level of the […] integrin.

[10] = target: human Met-Fc (Homo sapiens, UniProt P08581); test: Dual receptor direct binding assay on K562-αvβ3 cells; conditions: Met-Fc 220 nM, proteins 2 or 20 nM
Experimental: In this experiment, a mixture of soluble Alexa-488 labeled human Met-Fc (220 nM) and the mono-specific and the multi-specific proteins (2 or 20 nM) were added to K562-αvβ3 cells. Binding was detected by flow cytometry.

[11] = Serum stability, Western Blot; type: in vitro ADME; conditions: 40% human serum, 37° C., 7 days
Experimental: Serum stability of AgRp7A-M2.2(D127A) and EETI2.5F-M2.2(D127A) was shown when the proteins were incubated with 40% human serum at 37° C. for over several days. Samples were analyzed by Western Blot and detected with an antibody against the FLAG epitope tag.

With “AgRP mutant, SEQ ID NO: 36 GCVRLHESCLGQQVPCCDPAATCYCSGRGDNDLVCYCR (ends and bridges not checked; cysteine pairing not given here) [AgRp7A]” the Kd [1] was 0.78 nM, the Kd [2] was 0.89 nM and the “inhibition of Met phosphorylation” value [3] was “did not show inhibition”. The “inhibitory effect on HUVEC proliferation” value [4] was “little inhibitory effect”.

In the case of “EETI RGD mutant binding αvβ3, αvβ5, α5β1, SEQ ID NO: 33 GCPRPRGDNPPLTCKQDSDCLAGCVCGPNGFCG (ends and bridges not checked; cysteine pairing not given here) [EETI2.5F]”, the “inhibitory effect on HUVEC proliferation” value [4] is reported as “good inhibition” and the “inhibition of HUVEC proliferation” value ([4]; 1 μM, cells alone=90% inhibition) is reported as 70%.

With cRGD [reference compound] the “binding of EETI 2.5D-Axl to K562-αvβ3 cells with molar excess of cRGD” value [5] was “inhibits the binding”.

B1: Wt EETI-Axl: Wild-type EETI-II fused to the Axl Ig1 N-terminus (protein)
chain: GCPRILMRCKQDSDCLAGCVCGPNGFCGSRGTQAEESPFVGNPGNITGARGLTGTLRCQLQVQGEPPEVHWLRDGQILELADSTQTQVPLGEDEQDDWIVVSQLRITSLQLSDTGQYQCLVFLGHQTFVSQPGYVGLEGLP
For B1, the “affinity / binding to Gas6” value [6] was “same affinity as wild-type Axl”.

B2: Axl S6-1: engineered Axl Ig1, G32S, D87G, V92A, G127R, SEQ ID NO: 62 (protein)
chain: APRGTQAEESPFVSNPGNITGARGLTGTLRCQLQVQGEPPEVHWLRDGQILELADSTQTQVPLGEDEQGDWIVASQLRITSLQLSDTGQYQCLVFLGHQTFVSQPGYVRLEGLP
With B2 the “improvement in melting temperature over wild-type” value [7] was 13 °C and the “fold improvement in equilibrium binding over wild-type” value [8] was 20 fold.

B3: AgRp7A-M2.2(D127A): AgRP 7A knottin fused to NK1 fragment of HGF (M2.2 (D127A)), SEQ ID NO: 86 (protein)
chain: DYKDDDDKPRGCVRLHESCLGQQVPCCDPAATCYCSGRGDNDLVCYCRYAEGQRKRRNTIHEFKKSAKTTLIKIDPALKIKTEKVNTADQCANRCTRNKGLPFTCKAFVFDKARKRCLWFPFNSMSSGVKKEFGHEFDLYENKDYIRACIIGNGRSYRGTVSITKSGIKCQPWSSMIPHEHSFLPSSYRGEDLRENYCRNPRGEEGGPWCFTSDPEVRYEVCDIPQCSEVETRHHHHHH
For B3, the Kd [9] was 9.4 ± 1 nM, the “simultaneous binding to soluble Met-Fc and αvβ3 integrin on cells” value (“simultaneous binding” below) [10] was “able to bind to soluble Met-Fc” and the “amount of intact fusion protein in serum” value [11] was “No significant decrease”. For the same molecule, the “inhibitory effect on HUVEC proliferation” value [4] was “higher inhibitory effects”.

B4: EETI2.5F-M2.2(D127A): EETI 2.5F knottin fused to NK1 fragment of HGF (M2.2 (D127A)), SEQ ID NO: 89 (protein)
chain: DYKDDDDKPRGCPRPRGDNPPLTCSQDSDCLAGCVCGPNGFCGYAEGQRKRRNTIHEFKKSAKTTLIKIDPALKIKTEKVNTADQCANRCTRNKGLPFTCKAFVFDKARKRCLWFPFNSMSSGVKKEFGHEFDLYENKDYIRACIIGNGRSYRGTVSITKSGIKCQPWSSMIPHEHSFLPSSYRGEDLRENYCRNPRGEEGGPWCFTSDPEVRYEVCDIPQCSEVETRHHHHHH
With B4 the Kd [9] was 4.7 ± 0.6 nM, the “simultaneous binding” value [10] was “able to bind to soluble Met-Fc” and the “amount of intact fusion protein in serum” value [11] was “No significant decrease”. For the same molecule, the “inhibitory effect on HUVEC proliferation” value [4] was “higher inhibitory effects”.

B5: AgRp7A-M2.2: AgRP 7A knottin fused to NK1 fragment of HGF (M2.2), SEQ ID NO: 85 (protein)
chain: DYKDDDDKPRGCVRLHESCLGQQVPCCDPAATCYCSGRGDNDLVCYCRYAEGQRKRRNTIHEFKKSAKTTLIKIDPALKIKTEKVNTADQCANRCTRNKGLPFTCKAFVFDKARKRCLWFPFNSMSSGVKKEFGHEFDLYENKDYIRDCIIGNGRSYRGTVSITKSGIKCQPWSSMIPHEHSFLPSSYRGEDLRENYCRNPRGEEGGPWCFTSDPEVRYEVCDIPQCSEVETRHHHHHH
In the case of B5, the “simultaneous binding” value [10] is reported as “able to bind to soluble Met-Fc”.

B6: EETI2.5F-M2.2: EETI 2.5F knottin fused to NK1 fragment of HGF (M2.2), SEQ ID NO: 88 (protein)
chain: DYKDDDDKPRGCPRPRGDNPPLTCSQDSDCLAGCVCGPNGFCGYAEGQRKRRNTIHEFKKSAKTTLIKIDPALKIKTEKVNTADQCANRCTRNKGLPFTCKAFVFDKARKRCLWFPFNSMSSGVKKEFGHEFDLYENKDYIRDCIIGNGRSYRGTVSITKSGIKCQPWSSMIPHEHSFLPSSYRGEDLRENYCRNPRGEEGGPWCFTSDPEVRYEVCDIPQCSEVETRHHHHHH
In the case of B6, the “simultaneous binding” value [10] is reported as “able to bind to soluble Met-Fc”.

B7: AgRp7A-Aras4: AgRP 7A knottin fused to NK1 fragment of HGF (Aras4), SEQ ID NO: 66 (protein)
chain: DYKDDDDKPRGCVRLHESCLGQQVPCCDPAATCYCSGRGDNDLVCYCRYAEGQGKRRNTIHEFKKSAKTTLIKIDPALRIKTEKANTADQCANRCTRSKGLPFTCKAFVFDKARKRCLWFPFNSMSSGVKKEFGHEFDLYENKAYIRDCIIGRGRNYRGTVSITKSGIKCQPWSAMIPHEHSFLPSSYRGEDLRENYCRNPRGEEGGPWCYTSDPEVRYEVCDIPQCSEVETRHHHHHH
In the case of B7, the “inhibition of Met phosphorylation” value [3] is reported as “Dose dependent decreases; also recorded: slightly higher inhibitory effects”.

Source: US12240882B2, “Fusion proteins comprising an engineered knottin peptide and uses thereof” (The Board of Trustees of the Leland Stanford Junior …, priority 2010, dated 2025)
